The assay has as its target T1, Recombinant rat brain calmodulin (rat, UniProt P0DP29 1-149).
T1 construct: calmodulin, rat, recombinant; also called CaM; source: E. coli BL21 DE3, purified
As to the kind of experiment: pull-down; purified GST fusion proteins immobilised on GSH-Sepharose 4B beads; CaM (10 μg) added, 45 min, room temperature; 25 mM Hepes, 120 mM KCl, 5 mM NaCl, pH 7.5 with 5 mM EGTA (10 mM in the results text), no Ca2+; anti-CaM Western blot, band intensities quantified (n = 3). The following applies: both partners purified.

B1: GST-neurogranin (aa 1-78) (natural protein)
chain: MDCCTENACSKPDDDILDIPLDDPGANAAAAKIQASFRGHMARKKIKSGERGRKGPGPGGPGGAGVARGGAGGGPSGD
notes: neurogranin, aa 1-78, entry NP006167 as printed; also called Nrg; source: E. coli BL21 DE3, purified (GST fusion from pGEX-3X)
As to B1, the binding result was “binds”.

Source of the values: paper PMC6161613, “Lack of correlation between surface expression and currents in epileptogenic AB-calmodulin binding domain Kv7.2 potassium channel mutants” (Channels, 2018).
